{"source": "the nanobody polyreactivity screen of Harvey et al. (2022)", "data": [{"experiment": "yeast display, Sf9 membrane polyspecificity reagent, FACS + sequencing; frameworks hold sequencing errors", "how_it_was_run": "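Galactose induction of a Saccharomyces cerevisiae BJ5465 synthetic nanobody display library ran 36–48 hours. The cells were then stained for 1 hour at 4 °C with 10% biotinylated, detergent-solubilized Sf9 membrane reagent, pulled down on streptavidin microbeads and FACS-sorted into low and high (top ~1%) gates on expression and reagent-binding fluorescence. Labels for polyreactivity follow the gate of origin.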", "values": [{"sequence": "QVQLEESGGGLVQAGGSLRVSCAASGSILIPNAMGWYRQAPGKERELVASISKSGGSTYYADSVKGRFTISRDTAKNTVYLQMNSLKPEDTAVYYCAAAFVSVRKRYGYWGQGTQVTVSS", "polyreactivity (PSR sort gate)": "high polyreactivity"}, {"sequence": "QVQLEESGGGLVQAGGSLSLSCAASGSNFVYNAMGWYRQAPGKERELVAVINSGGSTNYADSVKGRFTISRDNAKNTVYIQKNSRKPEDTAVYYCAADRLAVHYYSWYNYWGQGTQVTVSS", "polyreactivity (PSR sort gate)": "low polyreactivity"}, {"sequence": "QVQLEESGGGLVQAGRSLRLSCAASGRTFIRNAMGRYRHAPGQQRELVAAISSRGGRTYYADSVKGRFTISRDNAKTTVSLEMNSLKPEDTAVYYCAADFTYKLDGYDYWGQGSQVTVSS", "polyreactivity (PSR sort gate)": "high polyreactivity"}, {"sequence": "QVQLEESGGGLVQARVSLRLSSAASGFTLWNYAMGLYRQAPGKERELVAGINSGGRTYYADSVKGRFTISRDNAKNTVYLQMKSLKPEDTAVFYCNARGWSSFSHNSYFMDYWGQGTQVTVSS", "polyreactivity (PSR sort gate)": "high polyreactivity"}, {"sequence": "QVQLEESGGGLVQEGGSLRLSSAASGFTFGKYAMGSYRQAPGKEMEFVASISSSGARTYYADSVKGRFTISRDNAKNTVYLQKNSLKPEDTAVYYCAAAYGRYYYTYDYWGQGTQVTVSS", "polyreactivity (PSR sort gate)": "high polyreactivity"}, {"sequence": "QVQLEESGGGSVQAGGSLRISCAASGFTFFSYTMGWYRQAPGKERELVAAISKRGSRTYYADSVKGRFTISRDHAKNTVDLQMNSLKPEDTAVYYCAADAGPEVVHRREDYWGQVTQVTVSS", "polyreactivity (PSR sort gate)": "high polyreactivity"}, {"sequence": "QVQLEESGGGVVQAGGSLRLSCAASGIIFYRYAMGCYRQAPGKERELVAAISKNGGRTYYADSVKGRFTISRDNAKNTVYLQMNSLKPEDTAVYYCNARYGYYLYWGQGTQVTVSS", "polyreactivity (PSR sort gate)": "high polyreactivity"}, {"sequence": "QVQLEESGGGVVQAGGSLRLTCAASASTSYNMGWYTQAPGKERELVAAISYPGGRTYYADSVKGRFTISRDNAKNTVYLQMTCLKPDDTGVYYCAKRIFVTFDSWGQGTQVTVSS", "polyreactivity (PSR sort gate)": "low polyreactivity"}, {"sequence": "QVQLEESGGRLVQAGGSLRLSCAASGRTFYVYALGWYRQAPGKEREFVAAISGSGGSTFYADSVKGRFTISRDNPKNTVYLQMNSLKPEDTAVYYCATGGSYLYYLKFGHLSAFDYWGQGTQVTVSS", "polyreactivity (PSR sort gate)": "low polyreactivity"}, {"sequence": "QVQLEESGGRLVQAGGSLRLSCAASGSTFQTYAMGWYRQAPGKERELVAAITWRGGSTYYADSVKGRFTISRDNAKNTVYLQMNSLKPEDTAVYYCAAKWHGAHDHRAAYESWGQGTQVTVSS", "polyreactivity (PSR sort gate)": "low polyreactivity"}, {"sequence": "QVQLEESGGSIVQAGGSLRLSCAASGYTFLGNAMGWYRKAPGKERELVAAISSGGTTFYADSVMGRFTISRDNAKNTVYLQMNSLNPEDTAVYYCAAKDTTVFYYDDDYWGQGTQVTVSS", "polyreactivity (PSR sort gate)": "low polyreactivity"}, {"sequence": "QVQLEESGRGLVQAGGSLRLSCAASGNTLGYNAMGWYRQAPGKVRELVATFRGSGGITYYADSVKGRFTISRDNALNTVYLQMNSLKPEDTAVYYCANVYKSRVKGDHWGQGTQVTVSS", "polyreactivity (PSR sort gate)": "low polyreactivity"}, {"sequence": "QVQLEESGRGLVQAGGSLRLSCAASGSIFIVYAIGWYRQAPGKERELVAAINDGGSTSYADSVKGRFTISRDNAKNTVYLQMNSLKPEDTAVYFCAAETYLGNDYWEDYYWGQGTQVTVSS", "polyreactivity (PSR sort gate)": "low polyreactivity"}, {"sequence": "QVQLEESGVGLVQAGGSLRLICAASGITLFHYVMGWYRQAPGKERELVAVISSSGGSTYYADSVKGRFTISRDNAKNTVYLQMNSLKPEDTAVYYCAAETDSRKARVLYDCWGQGTQVTVSS", "polyreactivity (PSR sort gate)": "high polyreactivity"}, {"sequence": "QVQLEESGVGLVQAGGSLRLSCAASGSIFYYNAMGSYRQPHGKERDLVAAISWGDGITYYADSVKGRFTISRDNGKNSVYLPMNSLKPEDTAVYYWAVDYYYLPYEYWGKGTQVTVSS", "polyreactivity (PSR sort gate)": "high polyreactivity"}, {"sequence": "QVQLEESPGGLVQAGGSLRLSCAASGRIIGRYAMGWTRQAPGKERELVAAISYRGGSTYYADSVKGRFTISRDNAKNTVYLQMNSLKPEDTAVYYCAKDSRSWPFKYDYWGQGTQVTVSS", "polyreactivity (PSR sort gate)": "high polyreactivity"}, {"sequence": "QVQLEESVGGLVQAGGSLRIICAASGSIFSVNSIGWSRQAPGKERELVAAITRDSGSTNYADSVKGRFTISRDNAKNTVYLQMNSLKPEDTAVYYCAADFYYNVSTTIVNFSYDYWGHGTQVTVSS", "polyreactivity (PSR sort gate)": "high polyreactivity"}, {"sequence": "QVQLEETGGGLVHAGGILRLSCAASGIIYVVNAMGWYRQAPAKERELVAAISRNGGSTYYADSVKGRFTISRDNAKNTVYLQMNSLIPEDTAVYYCADRTVGRNAGFDYWGQVTQVTVSS", "polyreactivity (PSR sort gate)": "high polyreactivity"}, {"sequence": "QVQLESGGGLVQAGGSLRISCAASGSTFVTYDMGWDRQAPGKEREIVAAIDWSGDSTYADSVKGRFTISRDNAKNTVYLQMNSLIPEDTAVYSCAADYDNYGDVYPYYTAGYGYWGQGTQVTVSS", "polyreactivity (PSR sort gate)": "low polyreactivity"}, {"sequence": "QVQLEVSGGVLVQPGGSIRLSCAASGFIFGFYAKGWYRQAPGKERELVASISGRGGRTSYADSVKGRFTISRDNAKNTVYLQMNSLKPEDTAVYYCNKAGYGVSRKYDYWGQGTQVNVSS", "polyreactivity (PSR sort gate)": "high polyreactivity"}, {"sequence": "QVQLGDSGGGLVQAGGSLRLICAASGLTIPDNTMGWYRQAPGKERELVSAIDWSGGGTDYADSVKGRFTISRDNAKNTVYLQMNSLYPVDTAVYYCATSWYIYPYDDWGQGTQVTVSS", "polyreactivity (PSR sort gate)": "low polyreactivity"}, {"sequence": "QVQLGESAGGLVQAGGSLRLSCAASGFTFYPYAMGWYRQAPGKEREFVAAITWRGASTYYADSVKGRFTISRDNGKNTVYLQMNSLKPEDTAVYYCNARWRVPRGYDYWGQGTQVTVSS", "polyreactivity (PSR sort gate)": "high polyreactivity"}, {"sequence": "QVQLGESGGALVQAGGSLRLSCAASGFTFKYYAMGWYRQAPGKERELVAAISRGGSTYYADSVKGRFTISRDNAKNTVYLQMNILKPEDTAVYYCAARYVRVGYDYWGQGTQVTVSS", "polyreactivity (PSR sort gate)": "high polyreactivity"}, {"sequence": "QVQLGESGGGFVQAGGSLRLSCAASGFIFAPYAMGWYRHAPGKERELDAFISWSGGRTYYADSVKGRFTLSRDKAKNTVYLLMNSLNPEDTAVYYCNARGSRRGGPGYEYWGQGTQVTVSS", "polyreactivity (PSR sort gate)": "high polyreactivity"}, {"sequence": "QVQLGESGGGLVHAGGSLRLSCAASGFIFGYYAMGWYRQAPGKERELVAAISQSTGSTYYADSVKGRFTISRDTAKNTVYLQMNSLKPEATAVYYCNAEGPEFTTWGYVYWAWGYGYWGQGTQVTVSS", "polyreactivity (PSR sort gate)": "low polyreactivity"}, {"sequence": "QVQLGESGGGLVLAGGSLRLSCAASGYDMGWYRHAPGKESELVAAISRGGSTSYADSVKGRFTISRDNAKNTVYLQMNSLKPEDTAVYYCAARYGSYRVGYDYWGQGTQVTVSS", "polyreactivity (PSR sort gate)": "low polyreactivity"}, {"sequence": "QVQLGESGGGLVLAGGSLRLSCAASGYIFRAYAMGWYRQAPGKERELVAAISSRGGSTYYADSVKGRFTSSRDYAKNTVYLQMNSLKPEDTEVYYCAAAYRQPYIGYGYWGQGTQVTVSS", "polyreactivity (PSR sort gate)": "high polyreactivity"}, {"sequence": "QVQLGESGGGLVQAGGRLRLRCAASGIIFTKYAMGLYRQAPGKERELVAAITASGGSTYYADSVKGRFTISRDTAKNTVYLQMNSLKPEDTAVYYCAARSPSRYGYWGQGTQVTVSS", "polyreactivity (PSR sort gate)": "high polyreactivity"}, {"sequence": "QVQLGESGGGLVQAGGSIRLSCAASGRTFYGYAMGWYRQAPGTERELVAAISYSGARTYYADSVKGRFTISRDNAKHTVNLQMNSLKPEDTAVYYCAATRAYWIGHLDYWGQGTQVTVSS", "polyreactivity (PSR sort gate)": "high polyreactivity"}, {"sequence": "QVQLGESGGGLVQAGGSLRLICAASGSTTPGNAMGWYRQAPGKQREFDADINSGGGTNYADSVKGRFTISRDNAKNNVYLQMNSLKPEDTAVYYCAKGYRRSFIGYWYLKYGYWGQGTQVTVSS", "polyreactivity (PSR sort gate)": "high polyreactivity"}, {"sequence": "QVQLGESGGGLVQAGGSLRLRCAASGSNFRTYVMGWYRQGPGKERELVAAISRRGGSTYYADSVKGRFTISRDNAKNTVYLPMNSLKPEDTAVYNCAAEDEYSLEYSTLDYWGQGTQVTVSS", "polyreactivity (PSR sort gate)": "high polyreactivity"}, {"sequence": "QVQLGESGGGLVQAGGSLRLSCAASGFTFYRYTLGWYRQAPGKERELVASITRRGGSTYYADSVKGRFTISRDNAKNYVYLQMNSLKPEDTAVYDCNAATPVWQSGTYEYWGQGTQVTVSS", "polyreactivity (PSR sort gate)": "high polyreactivity"}, {"sequence": "QVQLGESGGGLVQAGGSLRLSCAASGGILYWYAMGWYRQAPGKERELVAAIDGTGGSTYYADSVKGRFTISRDNAKNTVYFQMYSLRPEDTEVYYCDATRPSIVTGNVKNGYWGHGTQVTVSS", "polyreactivity (PSR sort gate)": "low polyreactivity"}, {"sequence": "QVQLGESGGGLVQAGGSLRLSCAASGLIIFSYAMGWSRQAPGKELEMVAAISRSGGRTYFADSVKGRFTISRDNAKNTVFLQMNRLKPEDTAVYYCAADDPYTPQYPDVTYDFWGQGTQVTVSS", "polyreactivity (PSR sort gate)": "high polyreactivity"}, {"sequence": "QVQLGESGGGLVQAGGSLRLSCAASGNTFFTYAMGWYRQAPGKERELVAVITSVGSTNYADSVKGRFTISRDNAKNTVYLQMNSLKPEDTAVYYCAARTRRGLARYDYWGHGTQVTVSS", "polyreactivity (PSR sort gate)": "high polyreactivity"}, {"sequence": "QVQLGESGGGLVQAGGSLRLSCAASGRIFISKTMGWSRQAPGKERELVAAITSSGRTYYADSVKGRFTISRDNAMNTVFFQMNSGKPEDTADYYCAADSYSGNDRRRGFDYWGQGTQVTVSS", "polyreactivity (PSR sort gate)": "low polyreactivity"}, {"sequence": "QVQLGESGGGLVQAGGSLRLSCAASGRIFRVNTMGWYRQAPGKERELVAAIRSSGTRTYYAVSVKGRFTISRDNAKNTVYLQMNSLKPEDTAVYYCAATGRRGSGYYYWGQGTQVTVSS", "polyreactivity (PSR sort gate)": "high polyreactivity"}, {"sequence": "QVQLGESGGGLVQAGGSLRLSCAASGRIFRYYAMGWYRQAPGKERELVAAISSSGGSTYYADSVKGRFTISRDNAKNTVYLQMNSLKPEDTAVYYCNTVGSVGKKRDYWGQGTQVTVSS", "polyreactivity (PSR sort gate)": "high polyreactivity"}, {"sequence": "QVQLGESGGGLVQAGGSLRLSCAASGRIFSYNAMRWYRPAPGKERELVAGITSGGRTYYADSVKGRFTISRDNAKNTVYLQMNSLKPEDTAVYYCAARYVPARTRYYFWGQGSQVTVSS", "polyreactivity (PSR sort gate)": "high polyreactivity"}, {"sequence": "QVQLGESGGGLVQAGGSLRLSCAASGRIFVYNAMGWYRQAPGKERQLVAAIRNDGSTNYADSVKGRFTISRDNAKNTVYFQMNSLKPEDTAVYYCAKSVTGWRGLWYTPRNYYWGQGTQVTVSS", "polyreactivity (PSR sort gate)": "high polyreactivity"}, {"sequence": "QVQLGESGGGLVQAGGSLRLSCAASGRIFYLNAMGWYRQAPGKERELVAVITGNAGCTYYADSVKGRFTISRDHAKNTVYLQMNSLKPEDTAVYYCNALRLVPWSDALYDYWGQGTQVTVSS", "polyreactivity (PSR sort gate)": "low polyreactivity"}, {"sequence": "QVQLGESGGGLVQAGGSLRLSCAASGRIVRFYAMGWYRQAPGKERELVATISRSGGSTYYADSVKGRFTISRDNAKNTVNIQMNSLKPEDTAVYYCARLVGSRYGHWGQGTQVTVSS", "polyreactivity (PSR sort gate)": "high polyreactivity"}, {"sequence": "QVQLGESGGGLVQAGGSLRLSCAASGRTFGLYAMGWYRQAPGKERELVAAISWGGGRTYYADSVKGRFTISRDNAKNTVYLQMNSLKPEDTAVYYCNAVYSPRYYVGGYDYWGQVTQVTVSS", "polyreactivity (PSR sort gate)": "high polyreactivity"}]}]}
